US20160209426A1 (Genentech, published 2016)

Molecular target: T1, integrin alphaEbeta7 (human, UniProt P38570 19-1179; P26010 20-798)
T1 construct: whole, on cells; In the occupancy experiments it stood on T lymphocytes from patients' colonic biopsies; also called αEβ7; αEβ7 receptor
Assay: flow cytometry on CD45+CD3+CD4- T lymphocytes from a pre-dose colonic biopsy
Protocol: Etrolizumab binds the β7 subunits of the heterodimeric integrins α4β7 and αEβ7. While α4β7 is expressed on leukocyte subsets in both blood and mucosal tissue, αEβ7 is primarily confined to intraepithelial lymphocytes and dendritic cells in mucosal tissue. Therefore, to evaluate the pharmacology and mechanism of action of etrolizumab at the site of action as well as in circulation, colonic tissue was assessed in addition to peripheral blood. Colonic tissue biopsies were collected using standard surgical procedures from 23 consented, study-enrolled patients at pre-dose (screen) and at certain post dose time points (day 43 and day 71). […]
Similar to the flow cytometry assay conducted on peripheral blood cells, occupancy of β7 integrin receptors on colonic tissue T lymphocyte subsets was assessed by staining with fluorescently labeled (PE label) FIB504, while expression of β7 integrin receptors was evaluated using fluorescently labeled 9D8 (PE label). […] Samples were then acquired on a BD FACS Cantoll™ or a BD FACSCalibur™ (BD Biosciences, San Jose, Calif. USA) and analyzed by gating on subsets of αEβ7-expressing and α4β7-expressing CD3+CD45+, αEβ7-expressing and α4β7-expressing CD3+CD4+CD45+, and αEβ7-expressing and α4β7-expressing CD3+CD4-CD45+ T cell subsets. […]

T1 sequence (P38570 19-1179, chain 1 of 2): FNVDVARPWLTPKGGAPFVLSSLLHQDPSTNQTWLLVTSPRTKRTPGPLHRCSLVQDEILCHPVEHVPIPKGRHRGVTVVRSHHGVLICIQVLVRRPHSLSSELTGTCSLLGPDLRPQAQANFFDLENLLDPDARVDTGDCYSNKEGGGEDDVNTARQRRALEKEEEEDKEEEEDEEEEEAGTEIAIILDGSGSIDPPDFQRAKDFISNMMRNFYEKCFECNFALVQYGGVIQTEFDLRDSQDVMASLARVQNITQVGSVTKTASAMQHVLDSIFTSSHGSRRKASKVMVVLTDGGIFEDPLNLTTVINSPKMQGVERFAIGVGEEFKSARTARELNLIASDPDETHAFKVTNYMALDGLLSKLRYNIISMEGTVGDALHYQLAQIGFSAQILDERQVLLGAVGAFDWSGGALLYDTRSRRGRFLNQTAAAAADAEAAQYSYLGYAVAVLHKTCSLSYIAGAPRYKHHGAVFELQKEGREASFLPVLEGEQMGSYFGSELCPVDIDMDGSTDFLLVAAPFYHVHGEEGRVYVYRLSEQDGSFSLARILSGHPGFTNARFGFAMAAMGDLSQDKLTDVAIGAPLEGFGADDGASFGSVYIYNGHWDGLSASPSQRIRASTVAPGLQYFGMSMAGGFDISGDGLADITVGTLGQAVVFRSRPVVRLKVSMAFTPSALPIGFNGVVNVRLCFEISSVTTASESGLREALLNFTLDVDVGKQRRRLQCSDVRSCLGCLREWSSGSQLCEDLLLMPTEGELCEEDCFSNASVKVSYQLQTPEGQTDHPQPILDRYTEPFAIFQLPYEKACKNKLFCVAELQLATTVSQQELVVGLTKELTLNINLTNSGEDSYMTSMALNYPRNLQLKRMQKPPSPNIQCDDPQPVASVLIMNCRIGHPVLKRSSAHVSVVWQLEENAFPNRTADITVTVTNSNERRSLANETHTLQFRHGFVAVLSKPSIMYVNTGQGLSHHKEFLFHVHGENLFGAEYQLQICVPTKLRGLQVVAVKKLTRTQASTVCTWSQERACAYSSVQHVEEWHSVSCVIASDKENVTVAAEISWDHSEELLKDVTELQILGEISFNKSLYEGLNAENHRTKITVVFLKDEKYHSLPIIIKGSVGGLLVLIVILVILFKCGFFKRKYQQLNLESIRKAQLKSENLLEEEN
T1 sequence (P26010 20-798, chain 2 of 2): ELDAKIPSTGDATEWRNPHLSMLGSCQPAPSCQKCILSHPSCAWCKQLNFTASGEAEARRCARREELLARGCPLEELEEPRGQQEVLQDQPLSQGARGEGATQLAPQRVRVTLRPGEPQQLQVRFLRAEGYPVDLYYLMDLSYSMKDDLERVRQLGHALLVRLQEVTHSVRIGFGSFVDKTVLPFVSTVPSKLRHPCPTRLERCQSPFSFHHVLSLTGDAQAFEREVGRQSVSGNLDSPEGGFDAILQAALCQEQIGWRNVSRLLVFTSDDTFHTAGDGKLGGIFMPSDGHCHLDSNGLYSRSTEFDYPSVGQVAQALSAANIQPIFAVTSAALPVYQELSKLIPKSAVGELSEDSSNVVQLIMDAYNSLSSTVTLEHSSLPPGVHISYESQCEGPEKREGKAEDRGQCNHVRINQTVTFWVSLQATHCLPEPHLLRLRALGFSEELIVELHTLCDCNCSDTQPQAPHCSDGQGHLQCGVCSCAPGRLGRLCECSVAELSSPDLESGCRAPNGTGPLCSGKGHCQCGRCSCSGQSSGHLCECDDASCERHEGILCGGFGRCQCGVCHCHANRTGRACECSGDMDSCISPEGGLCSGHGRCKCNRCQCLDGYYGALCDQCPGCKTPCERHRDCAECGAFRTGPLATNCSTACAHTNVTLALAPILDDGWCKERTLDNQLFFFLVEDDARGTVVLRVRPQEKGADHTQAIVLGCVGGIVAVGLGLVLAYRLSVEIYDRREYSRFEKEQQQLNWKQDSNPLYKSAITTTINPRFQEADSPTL

B1: FIB504 (rat anti-mouse/human beta7 monoclonal antibody), fluorescently labeled (antibody, V domains shown)
VH: EVQLQESGPGLVKPSQSLSLTCSVTGFFITNNYWGWIRKFPGNKMEWMGYISYSGSTSYNPSLKSRISITRDTSKNQFFLQLNSVTTEDTATYYCAMTGSSGYFDFWGPGTMVTVSS
VL: DVVMTQSPATLSVTPGERISLSCRASESVDTYLHWYQQKPNESPRLLIKYASQSISGIPSRFSGSGSGTDFTLSINGVELEDLSIYYCQQGNSLPNTFGAGTKLELKR
notes: Bought reagent (BD Biosciences), fluorescently labeled (PE label for colonic tissue)
B1: binds.
